The test system of data set [1] is IRS1 (insulin receptor substrate-1), species not stated.

We go through two substances from patent US20190153406.

For human MG53-D-RING truncated mutant, the “MG53-mediated substrate degradation, Western Blot, HEK293T co-expression (FIG. 17)” value in data set [1] was “human or mouse MG53-D-RING truncated mutant can hardly mediate IRS1 degradation”.
On to mouse MG53-D-RING truncated mutant, for which the “MG53-mediated substrate degradation, Western Blot, HEK293T co-expression (FIG. 16)” value in data set [1] was “human or mouse MG53-D-RING truncated mutant can hardly mediate IRS1 degradation”. In the data set on insulin receptor IR, the “degradation of IRβ, Western Blot, HEK293T co-expression (FIG. 16B)” value was “mouse MG53-D-RING truncated mutant and mouse MG53 S255A mutant can hardly mediate IRβ degradation”; the “degradation of precursor protein of IRβ, HEK293T co-expression” value was “mouse MG53-D-RING truncated mutant and mouse MG53 S255A mutant almost completely inhibited MG53-mediated degradation”.
